The text below walks through data of patent US20250340604A1 (ENKEFALOS BIOSCIENCES, published 2025).

First the molecules themselves.
T1: human leptin receptor (Hu ObR), recombinant extracellular domain (human, UniProt P48357 22-839)
T1 construct: extracellular domain; Recombinant Fc fusion (R&D Systems) or His-tagged (Sino Biologicals)
T1 sequence (looked up): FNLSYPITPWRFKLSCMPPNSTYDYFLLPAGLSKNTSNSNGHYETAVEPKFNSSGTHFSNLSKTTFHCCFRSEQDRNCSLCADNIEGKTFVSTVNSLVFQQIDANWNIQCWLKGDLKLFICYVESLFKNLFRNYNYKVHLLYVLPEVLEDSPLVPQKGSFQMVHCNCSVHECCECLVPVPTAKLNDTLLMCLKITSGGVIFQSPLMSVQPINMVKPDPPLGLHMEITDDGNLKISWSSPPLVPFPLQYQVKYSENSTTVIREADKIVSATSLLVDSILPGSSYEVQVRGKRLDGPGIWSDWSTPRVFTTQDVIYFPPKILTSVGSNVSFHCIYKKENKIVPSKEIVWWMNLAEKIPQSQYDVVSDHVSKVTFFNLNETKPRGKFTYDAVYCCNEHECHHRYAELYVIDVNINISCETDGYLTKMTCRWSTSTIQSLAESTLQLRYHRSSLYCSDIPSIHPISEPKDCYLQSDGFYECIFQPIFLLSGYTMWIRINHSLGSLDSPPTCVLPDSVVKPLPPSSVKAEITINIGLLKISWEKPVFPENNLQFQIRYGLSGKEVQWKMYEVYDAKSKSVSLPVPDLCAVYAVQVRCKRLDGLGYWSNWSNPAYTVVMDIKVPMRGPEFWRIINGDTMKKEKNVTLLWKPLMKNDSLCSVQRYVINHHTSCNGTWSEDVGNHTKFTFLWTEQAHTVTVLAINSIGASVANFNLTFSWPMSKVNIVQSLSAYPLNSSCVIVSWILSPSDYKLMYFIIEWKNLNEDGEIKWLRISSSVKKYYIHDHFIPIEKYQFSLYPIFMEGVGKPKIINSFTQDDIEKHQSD

T3 sequence (P02786 89-760): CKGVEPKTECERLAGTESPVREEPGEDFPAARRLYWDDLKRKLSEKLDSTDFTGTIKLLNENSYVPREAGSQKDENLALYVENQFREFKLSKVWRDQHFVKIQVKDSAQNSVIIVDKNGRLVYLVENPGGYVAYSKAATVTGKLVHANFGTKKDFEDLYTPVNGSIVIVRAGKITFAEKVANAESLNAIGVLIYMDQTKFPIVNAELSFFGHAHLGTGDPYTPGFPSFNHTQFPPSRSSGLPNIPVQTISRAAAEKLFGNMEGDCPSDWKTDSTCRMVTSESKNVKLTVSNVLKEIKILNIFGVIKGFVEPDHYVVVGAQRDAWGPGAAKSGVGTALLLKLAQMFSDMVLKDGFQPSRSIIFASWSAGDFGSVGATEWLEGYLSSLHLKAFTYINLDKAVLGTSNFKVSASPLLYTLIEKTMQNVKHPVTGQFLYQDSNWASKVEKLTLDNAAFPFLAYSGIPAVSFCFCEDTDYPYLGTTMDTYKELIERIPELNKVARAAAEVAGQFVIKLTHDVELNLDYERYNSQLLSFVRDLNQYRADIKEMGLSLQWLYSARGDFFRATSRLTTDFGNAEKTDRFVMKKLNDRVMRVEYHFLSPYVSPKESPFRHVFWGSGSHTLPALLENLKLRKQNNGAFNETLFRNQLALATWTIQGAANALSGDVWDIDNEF

For one test, the target named is T1, human leptin receptor (Hu ObR), …. The test can be described thus: phage selection and phage ELISA on coated receptor ECD.
As for GGVCPWPKWTYMAQKYCRRDSDCPGACICRGNGYCGSGSD (designed binder) [CYC1], the binding result is “binds”.

For GGVCPTAMWFDWFTVYCRRDSDCPGACICRGNGYCGSGSD (designed binder) [CYC13], the binding result is given as “binds”.

In the case of GGVCVQPWYSWFMEQGCRRDSDCPGACICRGNGYCGSGSD (designed binder) [CYC9], the binding result is recorded as “binds”.

Turning to GGVCYVDWPWTLTLWYCRRDSDCPGACICRGNGYCGSGSD (designed binder) [CYC11], the binding result was “binds”.

As to GGVCSDRWDWMFATWLCRRDSDCPGACICRGNGYCGSGSD (designed binder) [CYC8], the binding result was “binds”.

GGVCEWSDWFPYEFLFCRRDSDCPGACICRGNGYCGSGSD (designed binder) [CYC12]: the binding result is “binds”.

GGVCQSFFWWHSWFGVCRRDSDCPGACICRGNGYCGSGSD (designed binder) [CYC2]: the binding result is listed as “binds”.

GGVCFLWFWYGFSRTLCRRDSDCPGACICRGNGYCGSGSD (designed binder) [CYC14]: the binding result is given as “binds”.

As to GGVCWRWTPKIWVLEEMSSCSDCPGACICRGNGYCGSGSD (designed binder) [CYC4], the binding result is reported as “binds”.

For the molecule GGVCGWFYWYHKWFGPCRRDSDCPGACICRGNGYCGSGSD (designed binder) [CYC6], the binding result is listed as “binds”.

Consider GGVCWQGMMLFFVGEKCRRDSDCPGACICRGNGYCGSGSD (designed binder) [CYC5], for which the binding result was “binds”.

In the case of GGVCYDWGWFWPFEQYCRRDSDCPGACICRGNGYCGSGSD (designed binder) [CYC7], the binding result is given as “binds”.

With GGVCHSQFWPWEWYQFCRRDSDCPGACICRGNGYCGSGSD (designed binder) [CYC3], the binding result was “binds”.

For the molecule GGVCPTQTWWFWLPAQCRRDSDCPGACICRGNGYCGSGSD (designed binder) [CYC10], the binding result is listed as “binds”.

Another test concerns the target T2, human HER3/ErbB3 (Hu ErbB3), recombinant extracellular domain (human, UniProt P21860 20-643).
T2 construct: extracellular domain; Recombinant Fc fusion (R&D Systems) or His-tagged (Sino Biologicals)
The test is described as above.
With GGVCRHSYSQIPLWCRRDSDCPGACICRGNGYCGSGSD (designed binder) [CYC15], the binding result is given as “binds”.

For the molecule GGVCWWDKWVFPISRQCRRDSDCPGACICRGNGYCGSGSD (designed binder) [CYC16], the binding result is recorded as “binds”.

Another test concerns the target T3, human transferrin receptor (Hu TrfR), recombinant extracellular domain (human, UniProt P02786 89-760).
T3 construct: extracellular domain; Recombinant Fc fusion (R&D Systems) or His-tagged (Sino Biologicals); also called human TfR
The description is as above.
As for GGVCQMVSEHWVARVWCRRDSDCPGACICRGNGYCGSGSD (designed binder) [CYC45], the binding result is “binds”.

For the molecule GGVCKALWYMGWGTCRRDSDCPGACICRGNGYCGSGSD (designed binder) [CYC24], the binding result is given as “binds”.

In the case of GGVCKQNWLPGWGTCRRDSDCPGACICRGNGYCGSGSD (designed binder) [CYC25], the binding result was “binds”.

GGVCDPRWLAGWGSCRRDSDCPETCICRGNGYCASGYD (designed binder) [CYC18]: the binding result was “binds”.

For the molecule GGVCRYQEWHMESWGSCRRDSDCPGACICRGNGYCGSGSD (designed binder) [CYC43], the binding result is “binds”.

Take GGVCQEERWHMHSWGPCRRDSDCPGACICRGNGYCGSGSD (designed binder) [CYC42]: the binding result is listed as “binds”.

Turning to GGVCLVSQWHIESWGQCRRDSDCPGACICRGNGYCGSGSD (designed binder) [CYC41], the binding result is given as “binds”.

Take GGVCEYFRWHLDSWGECRRDSDCPGACICRGNGYCGSGSD (designed binder) [CYC40]: the binding result is reported as “binds”.

With GGVCLYEAWHLPSWGQCRRDSDCPGACICRGNGYCGSGSD (designed binder) [CYC44], the binding result was “binds”.

The target in another test is T4, mouse transferrin receptor (Mu TrfR), recombinant extracellular domain (mouse, UniProt Q62351 89-763).
T4 construct: extracellular domain; Recombinant Fc fusion (R&D Systems) or His-tagged (Sino Biologicals)
T4 sequence (Q62351 89-763): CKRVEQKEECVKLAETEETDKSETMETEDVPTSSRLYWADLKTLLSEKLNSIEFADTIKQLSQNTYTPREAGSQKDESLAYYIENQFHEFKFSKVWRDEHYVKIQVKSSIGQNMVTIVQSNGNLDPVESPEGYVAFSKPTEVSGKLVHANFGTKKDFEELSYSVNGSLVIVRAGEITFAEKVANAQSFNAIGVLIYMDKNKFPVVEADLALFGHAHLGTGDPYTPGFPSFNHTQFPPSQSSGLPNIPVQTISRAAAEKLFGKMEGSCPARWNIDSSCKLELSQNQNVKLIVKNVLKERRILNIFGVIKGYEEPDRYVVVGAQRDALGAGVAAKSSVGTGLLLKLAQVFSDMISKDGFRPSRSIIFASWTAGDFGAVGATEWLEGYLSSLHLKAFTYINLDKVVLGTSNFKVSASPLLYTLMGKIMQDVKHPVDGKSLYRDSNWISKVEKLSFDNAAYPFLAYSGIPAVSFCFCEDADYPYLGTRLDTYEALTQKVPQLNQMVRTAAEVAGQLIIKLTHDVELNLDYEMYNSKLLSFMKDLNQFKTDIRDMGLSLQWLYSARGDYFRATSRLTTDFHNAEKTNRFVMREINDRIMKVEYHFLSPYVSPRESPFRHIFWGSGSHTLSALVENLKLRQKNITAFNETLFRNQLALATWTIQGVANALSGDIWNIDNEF
The test is described as above.
Take GGVCMHNSASHNIQMQCRRDSDCPGACICRGNGYCGSGSD (designed binder) [CYC21]: the binding result was “binds”.

Consider GGVCAYVHDWYHHVMYCRRDSDCPGACICRGNGYCGSGSD (designed binder) [CYC20], for which the binding result is listed as “binds”.

Turning to GGVCTVWPFVWWGGVPCRRDSDCPGACICRGNGYCGSGSD (designed binder) [CYC19], the binding result is “binds”.

Consider GGVCHNLFVIESILFWCRRDSDCPGACICRGNGYCGSGSD (designed binder) [CYC23], for which the binding result is on record as “binds”.

With GGVCQTVFPMWPWYQLCRRDSDCPGACICRGNGYCGSGSD (designed binder) [CYC22], the binding result is “binds”.

The target in a further test is T5, human receptor for advanced glycation-end products (Hu RAGE), recombinant extracellular domain (human, UniProt Q15109 23-342).
T5 construct: extracellular domain; Recombinant Fc fusion (R&D Systems) or His-tagged (Sino Biologicals)
T5 sequence (Q15109 23-342): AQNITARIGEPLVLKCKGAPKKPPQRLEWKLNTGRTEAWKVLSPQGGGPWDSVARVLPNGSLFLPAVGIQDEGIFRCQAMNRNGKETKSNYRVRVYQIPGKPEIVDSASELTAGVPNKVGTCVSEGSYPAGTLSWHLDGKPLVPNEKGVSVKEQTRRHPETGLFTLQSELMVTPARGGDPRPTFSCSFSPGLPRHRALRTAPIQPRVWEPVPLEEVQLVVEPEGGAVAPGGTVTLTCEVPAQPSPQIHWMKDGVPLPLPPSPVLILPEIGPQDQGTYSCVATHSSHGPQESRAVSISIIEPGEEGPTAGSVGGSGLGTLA
The description is as above.
As for GGVCVSNFWFMHWFGVCRRDSDCPGACICRGNGYCGSGSD (designed binder) [CYC29], the binding result was “binds”.

Consider GGVCHVGYWWHIWMGACRRDSDCPGACICRGNGYCGSGSD (designed binder) [CYC28], for which the binding result is listed as “binds”.
